The data set deals with T1, LexA (Bacillus subtilis 3610) (UniProt P31080).
T1 sequence: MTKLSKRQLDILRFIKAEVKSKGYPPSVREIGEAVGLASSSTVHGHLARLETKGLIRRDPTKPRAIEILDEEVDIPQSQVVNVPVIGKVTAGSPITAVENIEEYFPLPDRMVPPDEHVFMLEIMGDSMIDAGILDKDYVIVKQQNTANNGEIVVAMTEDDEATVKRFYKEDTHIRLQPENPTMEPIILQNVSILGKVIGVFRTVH
Description: EMSA. Conditions: EMSA: 4 nM 32P probe, LexA 1-500 nM, binding buffer as printed (likely 5x stock): 100 mM HEPES pH 7.5, 100 mM Tris-HCl, 50% glycerol, 500 mM NaCl, 10 mM EDTA …. On the technique in general: Mobility shift assays separate free from complexed probe on a gel.

Take “CCTGACGATCACTCATTCTATTTTTTCCTCCTTTATGTTACCACTACATATACTATACCCTGTTTGAAGGGATTTGCCAAGAAAAAAGCGAACGCATATTCGGATTTTTTCTTGGCGTGATTCCTATCAAAATATCATAATGTATCAGAGAAATCATGTTTTCTTAGGAGGATAATGTGCTG (double strand) [PrecA]”: the binding result is “binds”.
With “AGGAGGGATCCTCTATATTGCTATTTCATGTTGGTGGATACAAGTAAAACCAAAATTTCCATATCCATCAGACTTAATGATTTTATCTAGAGAAATAGAAACGTAAACGAAAAAAATATTATTTTTTTAACTTTTTGTTTGAGCCTTTTTACAGATTGGAAGTCTTCAGAATAGGTCTTTTTTGGTAGTACTTACAATAATTATTATATTACATAAGTACTAGATCGTACACGAATTCCTCCT (double strand) [PsigNDN]”, the binding signal (fold lower affinity) was determined as 500.

Values taken from PMC6751061.
